{"source": "paper PMC8049983", "target": "V3A3E3 PA conjugated to carboxytetramethylrhodamine", "assay": "FRET or BRET", "data": [{"substance": "V3A3E3 PA conjugated to fluorescein isothiocyanate (peptide)", "values": [{"measurement": "FRET ratio", "result": "0.6 to 0.7"}]}]}
